Assay results taken from publication PMC5526789, “Structure of Full-Length SMC and Rearrangements Required for Chromosome Organization” (Molecular Cell, 2017).
Blank lines part the entries; values can stand above or below the molecule they belong to.

Columns and labels:
[1] = molecular target: Smc(D193C, mH, E1118Q)-HaloTag (Bacillus subtilis) (UniProt P51834); test: cross-linking; in vivo cysteine cross-linking: intact B. subtilis cells grown in SMG, 0.5 mM BMOE on ice; Smc-HaloTag labelled with HaloTag-TMR, SDS-PAGE, in-gel fluorescence; S152C and D193C report juxtaposed (disengaged) heads of the rod, K1151C ATP-engaged heads, A715C the arm/arm interface near the hinge
[2] = molecular target: BsSmcH-CC8(N634C) (Bacillus subtilis) (UniProt P51834); test: cross-linking; subunit exchange: equal amounts of two purified single-cysteine proteins mixed on ice, incubated at 37°C in 50 mM Tris-HCl pH 7.4, 200 mM NaCl, 1 mM TCEP; aliquots cross-linked with 200 µM BMOE (R558C to N634C at the hinge dimer interface); SDS-PAGE and Agilent 2100 Bioanalyzer; dimer to monomers
[3] = molecular target: Smc(S152C, mH, E1118Q)-HaloTag (Bacillus subtilis) (UniProt P51834); test: cross-linking; in vivo cysteine cross-linking: intact B. subtilis cells grown in SMG, 0.5 mM BMOE on ice; Smc-HaloTag labelled with HaloTag-TMR, SDS-PAGE, in-gel fluorescence; S152C and D193C report juxtaposed (disengaged) heads of the rod, K1151C ATP-engaged heads, A715C the arm/arm interface near the hinge
[4] = molecular target: the molecule itself; test: crystal structure; BsSmcCC2, hanging drop, 4°C, PEG 3350, Tris pH 8, MPD, calcium acetate; space group P1, two dimers in the asymmetric unit

cross-linking relative to wild type (% of wild-type levels) [1]: 20
Molecule: Smc(D193C, mH, E1118Q)-HaloTag (from UniProt P51834 1-1186) (natural protein)

half-life of the hinge dimer (subunit exchange) [2]: 49 min
Molecule: BsSmcH-CC8(R558C) (from UniProt P51834 519-637) (domain or fragment)

cross-linking relative to wild type (% of wild-type levels) [3]: 20
Molecule: Smc(S152C, mH, E1118Q)-HaloTag (from UniProt P51834 1-1186) (natural protein)

B1: BsSmcCC2 (domain or fragment, Bacillus subtilis)
chain: EKVQMAKEEELAESSAISAKEAKIEDTRDKIQALDESVDELQQVLLVTSEELEKLEGRKEVLKERKKNAVQNQEQLEEAIVQFQQKETVLKEELSKQEAVFETLQAEVKQLRAQVKEKQQALSLHNENVEEKIESGGSGGSRLTKQKQTQSSTKESLSNELTELKIAAAKKEQACKGEEDNLARLKKELTETELALKEAKEDLSFLTSEMSSSTSGEEKLEEAAKHKLNDKTKTIELIALRRDQRIKLQHGLDTYERELKEMKRLYKQKTTLLKDEEV
notes: Smc of Bacillus subtilis, residues 246-379 (N-terminal coiled-coil helix); linker; Smc of Bacillus subtilis, residues 793-929 (C-terminal coiled-coil helix); Selenomethionine-labelled protein was used for the SAD data; also called Smc middle segment; Bs Smc (246-379)/SGGSGGS/(793-929); source: E. coli BL21[DE3], purified (His-Trap, MonoQ, TEV cleavage, Superdex 200); not shown: His6, N-terminal, …
binding result [4]: binds
